{"source": "a protein production outcome set (Wang et al. 2014)"}
{"assay": "label from the status in PepcDB records"}
{"sequence": "MAENVGSDSSEFESISSSQKSYLKNCPFAGHEALPTKSTDSDNTEVLGNQISPAVVKTPILSFSSPTSLDSINDDVFRTPPENASLSSAAESEPRVGVSEIKLQGGSNLTTPFSMAETTLVSSSPSLPAENVRVSESNLKSSSSTAKTTPVSASPSVNARVSESNLNSSSSTTPVSVSPSEKVRVFETTPVSASPSEKVRVFETKCHSDSGDSVPLSSSPPSVAADDVRVPAKHLDSDSSPPTAIGRTMVLVKQRISASDNSASSSASEGTKVSKTENSGEVLPFKEIIEALLRNSGEKLNERDDKVSYVEILKQCGLKFPK", "protein production": "failed"}
{"sequence": "MAEPKFTSFTTADFINDVDMELFIDAVEKTAPVWVKEMKSRGLLKFSMNRVWNKGEVFRVVMTYEYKDRASFEANIAYLEDTFGKNPVFLQLVTTAKFTTSRCLVVMEV", "protein production": "not failed"}
{"sequence": "MAEPVDVLVLGGGPAALCIASELNQWGVAVGCIAPDPVDASWPNTYGIWADELKMVGLEHLLEHRWSDTVSFFGAGGSTAQDQSHAHGIDYGLFDRAELQRYWLERADGVVWHQDTAERVDATSATTSVSCVSGTTLQARLVIDASGSRTPHIRRPDQGPVAGQAAYGVVGRFSQPPIEAGRFVLMDYRCDHLSAAQRQEPPTFLYAMDLGDGVFFVEETSLALAPGFSYDVLKQRLQQRLDQRGVAITEVIHEEFCLFPMNLPLPDRSQPLLAFGGAASMVHPASGYMVGSLLRRGPDLAKALAEALANRNLGSAALAQRGWQALWPIELVLRHQLYQFGLGRLMGFNEALLRTHFATFFSLPREEWFGFLTNTLPLPRLMGVMLRLFALSPWELRRGLVLGAAMDQLPTFDQSSG", "protein production": "failed"}
{"sequence": "MAERTSDPAANDRFYFRQLLSGRDFAGADPIAQQMRNFAYFIGDRETGEAVVVDPAYAADELAAALEADGMRLAGVLVTHHHPDHVGGSMMGFTLKGVAELLEHRSVPVHVNSHEADWVSQVTGIARSELSAHEHGDTISVGAIDIELLHTPGHTPGSQCFLVDGRLVAGDTLFLEGCGRTDFPGGNVDDMFRSLQALAKLPGDPTVYPGHWYSAEPSAPLEEVKRSNYVYRASNLDQWRMLMGG", "protein production": "failed"}
{"sequence": "MAESKRDYYEVLGVSKDADDAAIKKAYRALAKKYHPDMNPGDAEAEKKFKEASEAYAVLSDAEKRRQYDQFGHAAFEGGAGGAGGFGGFDFNGADFGDIFGDIFGDLFGGGGRRGGRANNGPMKGANIRKSIRITFEEAVFGCKKELEVILKDPCTTCGGTGAKPGTSPETCPKCGGKGQVVYTSQSFFGTVQNVQTCPNCGGSGKVIKEKCTSCSGTGYTSSKKKIEVTIPAGIDNGQSVRIREKGEPGTNGGPRGDLLVEVNVSRHPIFQRQDMHIFSTVPISFAQAALGGDVKIQTVDGAVIYNVKPGTKTDTKVRLKGKGVPSLRNSAVRGDHYVTLVIQTPEKLSAEAKEALRRFDELSGNSLHQNDSNPEKSEKKTKRKGFMDKVKEAFEGED", "protein production": "failed"}
{"sequence": "MAESQALSDDIGFLLSRVGGMVLGAVNKALVPTGLRVRSYSVLVLACEQAEGVNQRGVAATMGLDPSQIVGLVDELEERGLVVRTLDPSDRRNKLIAATEEGRRLRDDAKARVDAAHGRYFEGIPDTVVNQMRDTLQSIAFPTFVE", "protein production": "not failed"}
{"sequence": "MAEVHNQLEIKFRLTDGSDIGPKAFPDATTVSALKETVISEWPREKENGPKTVKEVKLISAGKVLENSKTVKDYRSPVSNLAGAVTTMHVIIQAPVTEKEKKPKGDPKMNKCVCSVM", "protein production": "not failed"}
{"sequence": "MAEWSKAPDSSSGLRKRAWIRPWQREHMTIESVDHETRSMTQRFTVPEFFEGYKMITSTTKVNDSAIGLYSLVDISVEYDKTGPEIKDLDQVQFLVDYINELVLRTGGQLLRRLK", "protein production": "failed"}
{"sequence": "MAFELSPSDLEPLLQGACFFGSGGGGTMISARHLAANFRKGDYYPTDKVRVVDVDEATDGDCVMVAYMGAPDAINQVQWPNGPVEAALAARQRLESQGRKLAYVVAPESGALGFVVASLVAAKLGLAVVDADGAGRAVPSLPMLTYAAAGVPPTPAFLAGESGLCVELGVRMPPPDGQRREDISTVVEQMLRPILTNPQFGQFGGLAMWMMSPAQLGGALPVRGTLSRALKLGRALQDGKVKTAEAMLDFLRRELDIKGKLLFGPATLASSEVSTAGGFDLGKVVLEDGERRCTVLYQNESLLAWDSALSHPLATAPDAISYFVEGEGQHVFSNGDLSGNDHGLDPSVRGRKAAVIALPAAAPLSEGLILQSFADELAQLGYLGPYAPVDAGREGARLEHHHHHH", "protein production": "not failed"}
